From publication PMC9202080, “Evolution of homo‐oligomerization of methionine S‐adenosyltransferases is replete with structure–function constrains” (Protein Science : A Publication of the Protein Society, 2022)

How the values were obtained:
NgMAT [1] = molecular target: T1, NgMAT (Neisseria gonorrhoeae, UniProt Q5FAC0); assay: size exclusion chromatography, ligand-induced tetramerization; type: binding; details: 10 uM NgMAT; AMP-PNP alone or with methionine
T1 construct: gene metK; full length, C-terminal His6 tag, codon-optimised synthetic gene, E. coli BL21(DE3), dimer without substrates, functional homotetramer with substrates
T1 sequence (Q5FAC0 1-389): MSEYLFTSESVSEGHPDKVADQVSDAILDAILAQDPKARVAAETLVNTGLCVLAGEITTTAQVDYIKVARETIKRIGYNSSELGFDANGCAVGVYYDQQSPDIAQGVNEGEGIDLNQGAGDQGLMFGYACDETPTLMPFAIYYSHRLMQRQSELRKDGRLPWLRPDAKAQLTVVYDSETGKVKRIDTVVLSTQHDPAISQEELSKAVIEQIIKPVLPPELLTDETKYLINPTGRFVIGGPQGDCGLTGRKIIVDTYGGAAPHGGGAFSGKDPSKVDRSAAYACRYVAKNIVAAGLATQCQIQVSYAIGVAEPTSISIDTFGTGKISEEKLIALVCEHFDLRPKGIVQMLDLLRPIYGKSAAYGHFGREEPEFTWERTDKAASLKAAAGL

NgMAT [2] = molecular target: T1, NgMAT; assay: SAM formation, size exclusion chromatography; type: biochemical
[3] = molecular target: the molecule itself; assay: SEC; diluted from ~300 μM stocks to 10 μM, incubated 100 hr at 25°C in 50% glycerol, sampled by SEC until equilibrium (~75 hr); Kd calculated from the tetrameric fraction; tetramer to dimers
[4] = molecular target: the molecule itself; assay: SEC; Superdex 200 Increase, 25 mM TrisHCl, 150 mM KCl, 1 mM DTT; protein diluted from a 300 μM stock, pre-incubated diluted for an hour, then injected; EcMAT 1.56–100 μM, NgMAT 10–100 μM; no substrates
[5] = molecular target: the molecule itself; assay: SEC; 10 μM NgMAT pre-incubated with saturated methionine and ATP together
[6] = molecular target: the molecule itself; assay: SEC; 10 μM NgMAT pre-incubated with saturated methionine alone or ATP alone
[7] = molecular target: the molecule itself; assay: crystal structure; EcMATmut + 5 mM AMPPNP + 5 mM methionine, 1.6 Å, space group P42212, one copy in the asymmetric unit
[8] = molecular target: the molecule itself; assay: crystal structure; LpMAT + 5 mM AMPPNP + 5 mM methionine, 2.82 Å, space group P1, eight copies in the asymmetric unit

Nc1ncnc2c1ncn2[C@@H]1O[C@H](COP(=O)(O)OP(=O)(O)NP(=O)(O)O)[C@@H](O)[C@H]1O [AMP-PNP]
size exclusion chromatography, ligand-induced tetramerization (NgMAT [1]): We found that AMP‐PNP increased the tetrameric species substantially

Nc1ncnc2c1ncn2[C@@H]1O[C@H](COP(=O)(O)OP(=O)(O)OP(=O)(O)O)[C@@H](O)[C@H]1O [ATP]
SAM formation, size exclusion chromatography (NgMAT [2]; 10 uM NgMAT with methionine): in the presence of both substrates we saw a marked shift of NgMAT toward tetramerization

CSCC[C@H](N)C(=O)O [methionine]
SAM formation, size exclusion chromatography (NgMAT [2]; 10 uM NgMAT with ATP): in the presence of both substrates we saw a marked shift of NgMAT toward tetramerization

B1: Escherichia coli methionine S-adenosyltransferase (enzyme)
chain: AKHLFTSESVSEGHPDKIADQISDAVLDAILEQDPKARVACETYVKTGMVLVGGEITTSAWVDIEEITRNTVREIGYVHSDMGFDANSCAVLSAIGKQSPDINQGVDRADPLEQGAGDQGLMFGYATNETDVLMPAPITYAHRLVQRQAEVRKNGTLPWLRPDAKSQVTFQYDDGKIVGIDAVVLSTQHSEEIDQKSLQEAVMEEIIKPILPAEWLTSATKFFINPTGRFVIGGPMGDCGLTGRKIIVDTYGGMARHGGGAFSGKDPSKVDRSAAYAARYVAKNIVAAGLADRCEIQVSYAIGVAEPTSIMVETFGTEKVPSEQLTLLVREFFDLRPYGLIQMLDLLHPIYKETAAYGHFGREHFPWEKTDKAQLLRDAAGLK
notes: methionine S-adenosyltransferase (MAT) of Escherichia coli; Homotetramer (dimer of dimers) in solution; the self-association rows are of this chain with itself; also called EcMAT; E. coli MAT; source: E. coli BL21 (DE3), pET24a, purified (Ni-NTA)
Kd [3]: 8.2 µM | stoichiometry N [4]: 4

B2: Neisseria gonorrhoeae methionine S-adenosyltransferase (enzyme, UniProt B4RQ36 1-389, looked up)
chain: MSEYLFTSESVSEGHPDKVADQVSDAILDAILAQDPKARVAAETLVNTGLCVLAGEITTTAQVDYIKVARETIKRIGYNSSELGFDANGCAVGVYYDQQSPDIAQGVNEGEGIDLNQGAGDQGLMFGYACDETPTLMPFAIYYSHRLMQRQSELRKDGRLPWLRPDAKAQLTVVYDSETGKVKRIDTVVLSTQHDPAISHEELSKAVIEQIIKPVLPPELLTDETKYLINPTGRFVIGGPQGDCGLTGRKIIVDTYGGAAPHGGGAFSGKDPSKVDRSAAYACRYVAKNIVAAGLATQCQIQVSYAIGVAEPTSISIDTFGTGKISEEKLIALVCEHFDLRPKGIVQMLDLLRPIYGKSAAYGHFGREEPEFTWERTDKAASLKAAAGL
notes: methionine S-adenosyltransferase of Neisseria gonorrhoeae; also called NgMAT; N. gonorrhoeae MAT; source: E. coli BL21 (DE3), pET24a, purified (Ni-NTA)
stoichiometry N [5]: 4 | stoichiometry N [6]: 2

B3: Escherichia coli methionine S-adenosyltransferase E67K K98Q (enzyme)
chain: MAKHLFTSESVSEGHPDKIADQISDAVLDAILEQDPKARVACETYVKTGMVLVGGEITTSAWVDIEKITRNTVREIGYVHSDMGFDANSCAVLSAIGQQSPDINQGVDRADPLEQGAGDQGLMFGYATNETDVLMPAPITYAHRLVQRQAEVRKNGTLPWLRPDAKSQVTFQYDDGKIVGIDAVVLSTQHSEEIDQKSLQEAVMEEIIKPILPAEWLTSATKFFINPTGRFVIGGPMGDCGLTGRKIIVDTYGGMARHGGGAFSGKDPSKVDRSAAYAARYVAKNIVAAGLADRCEIQVSYAIGVAEPTSIMVETFGTEKVPSEQLTLLVREFFDLRPYGLIQMLDLLHPIYKETAAYGHFGREHFPWEKTDKAQLLRDAAGLK
notes: methionine S-adenosyltransferase (MAT) of Escherichia coli with the salt-bridge residues of the small interface swapped to those of NgMAT; made from the EcMAT construct by site directed mutagenesis; also called EcMATmut; E. coli E67K K98Q; source: E. coli BL21 (DE3), pET24a, purified (Ni-NTA)
stoichiometry N [7]: 4 | Kd [3]: 90.3 µM

B4: Lactiplantibacillus plantarum methionine S-adenosyltransferase (enzyme, UniProt Q88XB8 1-395, looked up)
chain: MSERHLFTSESVSEGHPDKIADQISDAILDAMLAQDPQARVAVETSVTTGLVLVFGEVSTKAYVDIQKVVRDTIKSIGYVDGQYGFDGDNCAVLVSLDEQSPDIAQGVDDSLETRSGDADPLDQIGAGDQGMMFGYAINETPELMPLPIALSHRLMRKIAALRKDGTIKWLRPDAKAQVTVEYDEDNQPKRIDTVVLSTQHDPDVDLDTIRQTVIDQVIKAVLPADLLDDQTKYLVNPTGRFVIGGPQGDAGLTGRKVIVDTYGGFAHHGGGAFSGKDATKVDRSASYAARYIAKNVVAAGLADQVEVQLAYAIGVAEPVSIAVDTAGTGKVSDEALINAIRENFDLRPAGIIKMLDLQRPIYRQTAAYGHFGRTDIDLPWEHTDKVDALKAVFK
notes: also called LpMAT; MAT from Lactiplantibacillus planatrum; source: E. coli BL21 (DE3), pET24a, purified (Ni-NTA)
stoichiometry N [8]: 2
